Measurements as given in the Immune Epitope Database (IEDB).

Tests used:
HLA-C*04:01 = experiment: IEDB peptide-MHC binding, purified MHC/direct/fluorescence; filed as Kd, often an IC50 or EC50 that approximates it; ≥ and ≤ were set here for values at or beyond the usual limits of such assays; conditions: source organism: Canis lupus familiaris
HLA-C*07:02 = experiment: as above; conditions: source organism: Canis lupus familiaris
HLA-A*01:01 = experiment: as above
HLA-A*02:01 = experiment: as above
HLA-A*03:01 = experiment: as above
HLA-A*11:01 = experiment: as above
HLA-A*26:01 [1] = experiment: as above; conditions: source organism: Influenza A virus(A/swine/Shandong/fNY/2003(H9N2))
HLA-A*31:01 [2] = experiment: as above
HLA-A*69:01 = experiment: as above
HLA-B*07:02 = experiment: as above
HLA-B*15:01 = experiment: as above
HLA-B*15:09 [3] = experiment: as above
HLA-B*18:01 = experiment: as above
HLA-B*27:05 = experiment: as above
HLA-B*38:01 = experiment: as above
HLA-B*39:01 [4] = experiment: as above
HLA-B*40:01 = experiment: as above
HLA-B*46:01 = experiment: as above
HLA-B*48:01 = experiment: as above
HLA-B*51:01 = experiment: as above
HLA-B*57:01 [5] = experiment: as above
HLA-B*58:01 = experiment: as above
HLA-B*08:01 [6] = experiment: IEDB peptide-MHC binding, purified MHC/competitive/fluorescence; filed as Kd, often an IC50 or EC50 that approximates it; ≥ and ≤ were set here for values at or beyond the usual limits of such assays
HLA-B*15:17 [7] = experiment: as above
HLA-A*24:02 = experiment: IEDB peptide-MHC binding, purified MHC/direct/fluorescence; filed as Kd, often an IC50 or EC50 that approximates it; ≥ and ≤ were set here for values at or beyond the usual limits of such assays; conditions: source organism: Influenza A virus (A/G.H/HK/793.1/02 (H5N1))
HLA-B*08:01 [8] = experiment: as above
HLA-B*44:02 = experiment: as above; conditions: source organism: Influenza A virus (A/G.H/HK/793.1/02 (H5N1))
HLA-B*15:17 [9] = experiment: as above
HLA-A*02:03 = experiment: IEDB peptide-MHC binding, purified MHC/competitive/fluorescence; filed as Kd, often an IC50 or EC50 that approximates it; ≥ and ≤ were set here for values at or beyond the usual limits of such assays; conditions: source organism: Influenza A virus (A/swine/Italy/1521/98(H1N2))
HLA-A*23:01 = experiment: IEDB peptide-MHC binding, purified MHC/direct/fluorescence; filed as Kd, often an IC50 or EC50 that approximates it; ≥ and ≤ were set here for values at or beyond the usual limits of such assays; conditions: source organism: Marburg virus - Musoke, Kenya, 1980
HLA-A*24:03 = experiment: as above; conditions: source organism: Marburg virus - Musoke, Kenya, 1980
HLA-B*08:02 = experiment: as above; conditions: source organism: Ravn virus - Ravn, Kenya, 1987
HLA-C*08:02 = experiment: as above; conditions: source organism: Orthomarburgvirus marburgense
HLA-A*02:06 = experiment: IEDB peptide-MHC binding, purified MHC/competitive/fluorescence; filed as Kd, often an IC50 or EC50 that approximates it; ≥ and ≤ were set here for values at or beyond the usual limits of such assays; conditions: source organism: Orthomarburgvirus marburgense
HLA-A*26:01 [10] = experiment: as above; conditions: source organism: Orthomarburgvirus marburgense
HLA-A*26:02 = experiment: as above; conditions: source organism: Orthomarburgvirus marburgense
HLA-A*68:02 = experiment: as above; conditions: source organism: Orthomarburgvirus marburgense
HLA-B*15:09 [11] = experiment: as above
HLA-B*39:01 [12] = experiment: as above; conditions: source organism: Orthomarburgvirus marburgense
HLA-B*57:01 [13] = experiment: as above; conditions: source organism: Orthomarburgvirus marburgense
HLA-A*30:01 = experiment: as above; conditions: source organism: Vibrio cholerae O1 biovar El Tor str. N16961
HLA-A*31:01 [14] = experiment: as above; conditions: source organism: Vibrio cholerae O1 biovar El Tor str. N16961
[15] = source organism: Influenza A virus (A/Wisconsin/4755/1994(H1N1))
[16] = source organism: Influenza A virus(A/swine/Shandong/fNY/2003(H9N2))
[17] = source organism: Influenza A virus H3N2
[18] = source organism: Influenza A virus (A/G.H/HK/793.1/02 (H5N1))
[19] = source organism: Influenza A virus (A/swine/Korea/S190/2004(H9N2))
[20] = source organism: Marburg virus - Musoke, Kenya, 1980
[21] = source organism: Orthomarburgvirus marburgense
[22] = source organism: Vibrio cholerae
[23] = source organism: Vibrio cholerae V52
[24] = source organism: Vibrio cholerae O1 biovar El Tor str. N16961

Measured: Kd

HYNAFHWAI
0.047 µM: HLA-C*07:02
≥ 20 µM: HLA-C*04:01

ITKEKKEEL
≥ 20 µM: HLA-A*01:01; [15] | HLA-A*02:01; [15] | HLA-A*03:01; [15] | HLA-A*11:01; [15] | HLA-A*26:01 [1] | HLA-A*31:01 [2]; [15] | HLA-A*69:01; [15] | HLA-B*07:02; [15] | HLA-B*15:01; [15] | HLA-B*15:09 [3]; [16] | HLA-B*18:01; [15] | HLA-B*27:05; [15] | HLA-B*38:01; [16] | HLA-B*39:01 [4]; [16] | HLA-B*40:01; [15] | HLA-B*46:01; [15] | HLA-B*48:01; [15] | HLA-B*51:01; [15] | HLA-B*57:01 [5]; [15] | HLA-B*58:01; [15] | HLA-B*15:17 [7]; [17]
4.81 µM: HLA-B*08:01 [6]; [17]

RRKTNLYGF
≥ 20 µM: HLA-A*01:01; [18] | HLA-A*02:01; [18] | HLA-A*03:01; [18] | HLA-A*11:01; [18] | HLA-A*24:02 | HLA-B*07:02; [18] | HLA-B*08:01 [8]; [18] | HLA-B*15:01; [18] | HLA-B*15:09 [3]; source organism: Influenza A virus (A/Taiwan/2/2006(H1N1)) | HLA-B*18:01; [18] | HLA-B*40:01; [18] | HLA-B*44:02 | HLA-B*46:01; [18] | HLA-B*58:01; [18]
0.021 µM: HLA-B*27:05; source organism: Influenza A virus (A/Puerto Rico/8/34/Mount Sinai(H1N1))

WIPKRNRSI
0.644 µM: HLA-B*07:02; [19]
≥ 20 µM: HLA-A*01:01; [19] | HLA-A*02:01; [19] | HLA-A*03:01; [19] | HLA-A*11:01; [19] | HLA-A*31:01 [2]; [19] | HLA-A*69:01; [19] | HLA-B*15:01; [19] | HLA-B*15:09 [3]; [17] | HLA-B*15:17 [9]; [19] | HLA-B*18:01; [19] | HLA-B*27:05; [19] | HLA-B*38:01; [17] | HLA-B*39:01 [4]; [17] | HLA-B*40:01; [19] | HLA-B*46:01; [19] | HLA-B*48:01; [19] | HLA-B*57:01 [5]; [19] | HLA-B*58:01; [19] | HLA-A*02:03
0.018 µM: HLA-B*08:01 [8]; [17]

YLAPSYRNF
0.023 µM: HLA-A*23:01
0.0165 µM: HLA-A*24:03
3.22 µM: HLA-A*68:02
3.98 µM: HLA-B*15:17 [7]; [21]
5.13 µM: HLA-A*26:01 [10]
≥ 20 µM: HLA-A*01:01; [20] | HLA-A*11:01; [20] | HLA-A*31:01 [2]; [20] | HLA-A*69:01; [20] | HLA-B*07:02; [20] | HLA-B*08:02 | HLA-B*18:01; [20] | HLA-C*08:02 | HLA-A*02:06 | HLA-B*15:09 [11]; [21] | HLA-B*39:01 [12] | HLA-B*57:01 [13]
0.43 µM: HLA-B*58:01; source organism: Ravn virus - Ravn, Kenya, 1987
0.0042 µM: HLA-A*26:02

YLKKGRLSL
1.49 µM: HLA-A*30:01
0.0532 µM: HLA-B*08:01 [6]; [24]
0.053 µM: HLA-B*15:01; [23]
0.123 µM: HLA-B*07:02; [22]
5.06 µM: HLA-B*46:01; [22]
≥ 20 µM: HLA-A*01:01; [22] | HLA-A*03:01; [22] | HLA-A*11:01; [22] | HLA-A*69:01; [22] | HLA-B*15:17 [9]; [22] | HLA-B*18:01; [22] | HLA-B*27:05; [22] | HLA-B*39:01 [4]; [23] | HLA-B*40:01; [22] | HLA-B*48:01; [22] | HLA-B*51:01; [22] | HLA-B*57:01 [5]; [22] | HLA-B*58:01; [22] | HLA-A*31:01 [14] | HLA-B*15:09 [11]; [24]
